From article PMC12329532

Target: N-terminally His6-tagged human IDO1 (indoleamine 2,3-dioxygenase 1), purified apo-IDO1 (human) (UniProt P14902)
Sequence (P14902 whole entry): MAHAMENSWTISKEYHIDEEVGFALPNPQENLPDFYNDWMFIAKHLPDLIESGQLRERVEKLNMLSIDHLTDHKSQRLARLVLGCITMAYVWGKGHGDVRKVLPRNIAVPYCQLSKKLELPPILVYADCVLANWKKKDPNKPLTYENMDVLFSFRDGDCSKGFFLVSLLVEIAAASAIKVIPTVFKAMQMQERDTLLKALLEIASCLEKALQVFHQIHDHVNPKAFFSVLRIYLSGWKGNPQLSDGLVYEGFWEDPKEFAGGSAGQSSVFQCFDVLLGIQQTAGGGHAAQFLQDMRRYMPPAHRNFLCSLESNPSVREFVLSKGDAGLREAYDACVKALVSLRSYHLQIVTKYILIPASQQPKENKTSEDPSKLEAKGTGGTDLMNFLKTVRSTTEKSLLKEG

Substance: human recombinant TC-GAPDH (GAPDH with a tetra-Cys insertion sequence near its heme binding site), wild type, purified (from UniProt P04406 1-335) (enzyme)
- IDO1 catalytic activity after the heme transfer reaction with the TC-GAPDH-heme complex: 2 fold
- decrease in heme content of TC-GAPDH (UV-vis) after 30 min at 37 °C with apo-IDO1 and separation by gel filtration: 50%
